The values that follow come from the supplement of paper PMC11246515.

± gives the standard deviation of the averaged measurements.

This data set in a line: total protein half-life in vivo (active degradation + dilution); higher = more stable protein.
Setting [1] is: E. coli NCM3722 delta-clpP delta-lon delta-hslV, growth: N-lim chemostat, doubling time 6 h.
Setting [2] is: E. coli NCM3722 delta-clpP, growth: N-lim chemostat, doubling time 6 h.
Where [3] appears, read: E. coli NCM3722 delta-hslV, growth: N-lim chemostat, doubling time 6 h.
Where [4] appears, read: E. coli NCM3722 delta-lon, growth: N-lim chemostat, doubling time 6 h.
The mark [5] stands for this setting: E. coli NCM3722 delta-smpB, growth: N-lim chemostat, doubling time 6 h.
[6] abbreviates: wild type E. coli NCM3722, growth: C-lim chemostat, doubling time 3 h.
[7] abbreviates: wild type E. coli NCM3722, growth: C-lim chemostat, doubling time 6 h.
[8] abbreviates: wild type E. coli NCM3722, growth: C-lim chemostat, doubling time 12 h.
[9] abbreviates: wild type E. coli NCM3722, growth: N-lim chemostat, doubling time 6 h.
Setting [10] is: wild type E. coli NCM3722, growth: N-lim chemostat, doubling time 12 h.
Setting [11] is: wild type E. coli NCM3722, growth: P-lim chemostat, doubling time 6 h.
Setting [12] is: wild type E. coli NCM3722, growth: P-lim chemostat, doubling time 12 h.

In the case of “MAQIFNFSSGPAMLPAEVLKQAQQELRDWNGLGTSVMEVSHRGKEFIQVAEEAEKDFRDLLNVPSNYKVLFCHGGGRGQFAAVPLNILGDKTTADYVDAGYWAASAIKEAKKYCTPNVFDAKVTVDGLRAVKPMREWQLSDNAAYMHYCPNETIDGIAIDETPDFGADVVVAADFSSTILSRPIDVSRYGVIYAGAQKNIGPAGLTIVIVREDLLGKANIACPSILDYSILNDNGSMFNTPPTFAWYLSGLVFKWLKANGGVAEMDKINQQKAELLYGVIDNSDFYRNDVAKANRSRMNVPFQLADSALDKLFLEESFAAGLHALKGHRVVGGMRASIYNAMPLEGVKALTDFMVEFERRHG”, the “total protein half-life in vivo” value runs as follows: under setting [1], 5.23 ± 1.6 h; under setting [2], 3.87 ± 0.14 h; under setting [3], 3.6976 ± 0.003 h; under setting [4], 4.479 ± 0.022 h; under setting [5], 3.55 ± 0.13 h; under setting [6], 3.13 ± 0.2 h. Moreover, the “total protein half-life in vivo” value reads like this: under setting [7], 5.71 ± 0.44 h; under setting [8], 11.1 ± 2.7 h; under setting [9], 3.83 ± 0.23 h; under setting [10], 5.898 ± 0.048 h; under setting [11], 5.74 ± 0.69 h; under setting [12], 11.8 ± 0.42 h.
With “MRKLWNALRRPSARWSVLALVAIGIVIGIALIVLPHVGIKVTSTTEFCVSCHSMQPVYEEYKQSVHFQNASGVRAECHDCHIPPDIPGMVKRKLEASNDIYQTFIAHSIDTPEKFEAKRAELAEREWARMKENNSATCRSCHNYDAMDHAKQHPEAARQMKVAAKDNQSCIDCHKGIAHQLPDMSSGFRKQFDELRASANDSGDTLYSIDIKPIYAAKGDKEASGSLLPASEVKVLKRDGDWLQIEITGWTESAGRQRVLTQFPGKRIFVASIRGDVQQQVKTLEKTTVADTNTEWSKLQATAWMKKGDMVNDIKPIWAYADSLYNGTCNQCHGAPEIAHFDANGWIGTLNGMIGFTSLDKREERTLLKYLQMNASDTAGKAHGDKKEEK”, the “total protein half-life in vivo” value reads like this: under setting [4], 5.27 h; under setting [10], 9.72 h; under setting [12], 10.5 h.
Consider “MTRIKINARRIFSLLIPFFFFTSVHAEQTAAPAKPVTVEAKNETFAPQHPDQYLSWKATSEQSERVDALAEDPRLVILWAGYPFSRDYNKPRGHAFAVTDVRETLRTGAPKNAEDGPLPMACWSCKSPDVARLIQKDGEDGYFHGKWARGGPEIVNNLGCADCHNTASPEFAKGKPELTLSRPYAARAMEAIGKPFEKAGRFDQQSMVCGQCHVEYYFDGKNKAVKFPWDDGMKVENMEQYYDKIAFSDWTNSLSKTPMLKAQHPEYETWTAGIHGKNNVTCIDCHMPKVQNAEGKLYTDHKIGNPFDNFAQTCANCHTQDKAALQKVVAERKQSINDLKIKVEDQLVHAHFEAKAALDAGATEAEMKPIQDDIRHAQWRWDLAIASHGIHMHAPEEGLRMLGTAMDKAADARTKLARLLATKGITHEIQIPDISTKEKAQQAIGLNMEQIKAEKQDFIKTVIPQWEEQARKNGLLSQ [P0ABK9]”, for which the “total protein half-life in vivo” value was 3.84 h under setting [1], 5.87 h under setting [2], greater than 16 h under setting [8] and 10.5 ± 0.82 h under setting [10].
For “MKLQLVAVGTKMPDWVQTGFTEYLRRFPKDMPFELIEIPAGKRGKNADIKRILDKEGEQMLAAAGKNRIVTLDIPGKPWDTPQLAAELERWKLDGRDVSLLIGGPEGLSPACKAAAEQSWSLSALTLPHPLVRVLVAESLYRAWSITTNHPYHRE [P0A8I8]”, the “total protein half-life in vivo” value runs as follows: under setting [1], 5.401 ± 0.053 h; under setting [2], 3.23 ± 0.13 h; under setting [3], 5.99 ± 1.1 h; under setting [4], 6.18 ± 1.4 h; under setting [5], 3.18 ± 0.43 h; under setting [6], 2.78 ± 0.13 h. The “total protein half-life in vivo” value is, setting by setting: under setting [7], 4.96 ± 0.5 h; under setting [8], 9.34 ± 2 h; under setting [9], 4.87 ± 0.21 h; under setting [10], 8.26 ± 0.7 h; under setting [11], 4.57 ± 0.29 h; under setting [12], 9.29 ± 0.3 h.
On to “MAETKIVVGPQPFSVGEEYPWLAERDEDGAVVTFTGKVRNHNLGDSVNALTLEHYPGMTEKALAEIVDEARNRWPLGRVTVIHRIGELWPGDEIVFVGVTSAHRSSAFEAGQFIMDYLKTRAPFWKREATPEGDRWVEARESDQQAAKRW”, for which the “total protein half-life in vivo” value was determined as 4.68 ± 0.7 h under setting [1]; 3.99 ± 0.26 h under setting [2]; 5.32 ± 0.47 h under setting [3]; 4.42 ± 0.088 h under setting [4]; 3.5 ± 0.33 h under setting [5]; 2.7 ± 0.15 h under setting [6]. The “total protein half-life in vivo” value was 5.78 ± 0.33 h under setting [7]; 8.46 ± 0.13 h under setting [8]; 4.573 ± 0.012 h under setting [9]; 6.78 h under setting [10]; 6.8 ± 1.3 h under setting [11]; 11.1 ± 0.62 h under setting [12].
Consider “MATKLQDGNTPCLAATPSEPRPTVLVFDSGVGGLSVYDEIRHLLPDLHYIYAFDNVAFPYGEKSEAFIVERVVAIVTAVQERYPLALAVVACNTASTVSLPALREKFDFPVVGVVPAIKPAARLTANGIVGLLATRGTVKRSYTHELIARFANECQIEMLGSAEMVELAEAKLHGEDVSLDALKRILRPWLRMKEPPDTVVLGCTHFPLLQEELLQVLPEGTRLVDSGAAIARRTAWLLEHEAPDAKSADANIAFCMAMTPGAEQLLPVLQRYGFETLEKLAVLG”, for which the “total protein half-life in vivo” value came out at 5.25 ± 0.28 h under setting [1]; 4.4 ± 0.08 h under setting [2]; 4.32 ± 0.48 h under setting [3]; 4.74 ± 0.2 h under setting [4]; 4.44 ± 0.14 h under setting [5]; 3.22 ± 0.32 h under setting [6]. Further, the “total protein half-life in vivo” value under setting [7] is 5.49 ± 0.17 h; the “total protein half-life in vivo” value under setting [9] amounted to 4.54 ± 0.11 h; the “total protein half-life in vivo” value under setting [10] was 7.85 ± 0.034 h; the “total protein half-life in vivo” value under setting [11] is 6.21 ± 0.3 h; the “total protein half-life in vivo” value under setting [12] turned out to be 12.2 ± 0.2 h.
For “MDSSFTPIEQMLKFRASRHEDFPYQEILLTRLCMHMQSKLLENRNKMLKAQGINETLFMALITLESQENHSIQPSELSCALGSSRTNATRIADELEKRGWIERRESDNDRRCLHLQLTEKGHEFLREVLPPQHNCLHQLWSALSTTEKDQLEQITRKLLSRLDQMEQDGVVLEAMS [P0ACR9]”, the “total protein half-life in vivo” value is, setting by setting: under setting [1], 6.37 ± 0.21 h; under setting [2], 6.705 ± 0.017 h; under setting [3], 5.82 ± 1 h; under setting [4], 5.39 ± 0.61 h; under setting [5], 4.81 ± 0.11 h; under setting [6], 2.7 ± 0.27 h. For the same sequence, the “total protein half-life in vivo” value was 5.49 ± 0.42 h under setting [7]; 11 ± 0.57 h under setting [8]; 4.78 ± 0.44 h under setting [9]; 7.04 ± 0.45 h under setting [10]; 4.86 ± 0.51 h under setting [11]; 9.8 ± 0.2 h under setting [12].
